Reference: the supplement of paper PMC10126150
± gives the standard deviation of the averaged measurements.

Each sequence was assayed on ATP (assay: switch fluorescence ratio, 500 uM ATP over buffer (Cy3 cluster intensity, sum of 5 cycles each) (fold (ratio)); higher = stronger signal-on switching upon ATP binding; sequences stand for … in TCGTCGGCAGCGTCAGATGTGTATAAGAGACAGTTTTTTTTTTTTTTTTTTTTTTTTT…TC). Settings: aptamer strand: ATP DNA aptamer (quencher-CACCTGGGGGAGTATTGCGGAGGAAGG + anchor), 100 nM annealed; ATP concentration: 500 uM.
Outline: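 Exposure to 500 uM ATP lasted 15 min at 22 °C before imaging, and a selection-buffer image was taken beforehand, for Cy3-labelled switching-strand clusters on a modified Illumina MiSeq flow-cell annealed to 100 nM quencher-labelled ATP aptamer. Five buffer/ATP cycles were run with NaOH stripping and re-annealing between them. The fluorescence ratio per cluster is summed target-cycle over summed buffer-cycle Cy3 intensity, averaged per switch-domain sequence. Clusters outside 100-1000 RFU were excluded.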
Sequence GCTATATACA has a switch fluorescence ratio of 1.04 ± 0.014.
GCTATCATCG was tested, and the switch fluorescence ratio was 0.997 ± 0.035.
GCTATCGGGA was tested, and the switch fluorescence ratio was 1.01 ± 0.037.
For GCTATCTGCT, the switch fluorescence ratio was 0.976 ± 0.06.
GCTATGAAAA gave a switch fluorescence ratio of 0.986 ± 0.028.
GCTATGAG was tested, and the switch fluorescence ratio was 0.995 ± 0.037.
With GCTATGGTGG the switch fluorescence ratio was 0.987 ± 0.021.
GCTATGTAGG gave a switch fluorescence ratio of 1 ± 0.062.
In the case of GCTCAAAGTT, the switch fluorescence ratio is reported as 0.99 ± 0.02.
GCTCAAGTGC showed a switch fluorescence ratio of 1.07 ± 0.032.
Work on GCTCAGGGGG yielded a switch fluorescence ratio of 1.03 ± 0.016.
GCTCATAGGA was tested, and the switch fluorescence ratio was 0.972 ± 0.016.
GCTCCATGGG was tested, and the switch fluorescence ratio was 1.02 ± 0.046.
With GCTCCCAAGG the switch fluorescence ratio was 3.69 ± 0.46.
Sequence GCTCCCGGGC has a switch fluorescence ratio of 1.1 ± 0.041.
GCTCCGATAG was tested, and the switch fluorescence ratio was 5.2 ± 0.94.
Sequence GCTCCTGACT has a switch fluorescence ratio of 1.15 ± 0.026.
With GCTCGAAAGA the switch fluorescence ratio was 1.008 ± 0.0024.
GCTCGAATTA showed a switch fluorescence ratio of 1.02 ± 0.016.
GCTCGACAAT showed a switch fluorescence ratio of 1.15 ± 0.14.
For GCTCGGAGGA, the switch fluorescence ratio was 1 ± 0.025.
Sequence GCTCGGGGGA has a switch fluorescence ratio of 0.978 ± 0.022.
GCTCGGGGTC was tested, and the switch fluorescence ratio was 0.978 ± 0.062.
In the case of GCTCTAAGGG, the switch fluorescence ratio is reported as 1.01 ± 0.028.
With GCTCTAGATG the switch fluorescence ratio was 1.04 ± 0.0076.
For GCTCTATACG, the switch fluorescence ratio was 1.049 ± 0.003.
For GCTCTGGCTA, the switch fluorescence ratio was 1.11 ± 0.022.
GCTCTTGTGC was tested, and the switch fluorescence ratio was 1.008 ± 0.0034.
GCTCTTTAGA was tested, and the switch fluorescence ratio was 0.962 ± 0.018.
GCTCTTTGAA was tested, and the switch fluorescence ratio was 1.01 ± 0.012.
In the case of GCTGAAGGGA, the switch fluorescence ratio is reported as 0.99 ± 0.042.
GCTGAAGTTT gave a switch fluorescence ratio of 0.979 ± 0.038.
For GCTGAGAGTC, the switch fluorescence ratio was 0.992 ± 0.034.
In the case of GCTGAGGGTT, the switch fluorescence ratio is reported as 0.9552 ± 0.006.
GCTGATACGG was tested, and the switch fluorescence ratio was 1.07 ± 0.027.
GCTGATATGG showed a switch fluorescence ratio of 1.02 ± 0.054.
Sequence GCTGATCGTA has a switch fluorescence ratio of 0.9915 ± 0.0057.
Sequence GCTGATTAG has a switch fluorescence ratio of 0.954 ± 0.011.
For GCTGCACGGG, the switch fluorescence ratio was 1.01 ± 0.03.
GCTGCAGCGC gave a switch fluorescence ratio of 1.005 ± 0.0042.
GCTGCCAACC gave a switch fluorescence ratio of 1.11 ± 0.031.
GCTGGAAAGG showed a switch fluorescence ratio of 1.01 ± 0.079.
Sequence GCTGGAACTG has a switch fluorescence ratio of 1.06 ± 0.14.
Work on GCTGGAAGCA yielded a switch fluorescence ratio of 0.986 ± 0.078.
GCTGGAATGG gave a switch fluorescence ratio of 1.06 ± 0.015.
In the case of GCTGGAGCCA, the switch fluorescence ratio is reported as 1.03 ± 0.019.
Sequence GCTGGAGGGT has a switch fluorescence ratio of 0.997 ± 0.019.
With GCTGGATGGC the switch fluorescence ratio was 0.993 ± 0.025.
GCTGGCTTGC showed a switch fluorescence ratio of 0.988 ± 0.021.
Sequence GCTGGGACAC has a switch fluorescence ratio of 1.04 ± 0.012.
GCTGGGAGTT gave a switch fluorescence ratio of 1 ± 0.054.
GCTGGGCGAT was tested, and the switch fluorescence ratio was 0.961 ± 0.032.
For GCTGGGCGGA, the switch fluorescence ratio was 1.04 ± 0.039.
Sequence GCTGGGGATT has a switch fluorescence ratio of 0.987 ± 0.02.
With GCTGGGGGCT the switch fluorescence ratio was 1.008 ± 0.0076.
GCTGGGTAAC was tested, and the switch fluorescence ratio was 1.006 ± 0.0034.
Work on GCTGGGTGCA yielded a switch fluorescence ratio of 0.9719 ± 0.0016.
In the case of GCTGGGTTGC, the switch fluorescence ratio is reported as 1.01 ± 0.024.
GCTGGGTTGG was tested, and the switch fluorescence ratio was 1 ± 0.026.
Sequence GCTGGTATAT has a switch fluorescence ratio of 1.01 ± 0.016.
GCTGGTCGCC showed a switch fluorescence ratio of 1.005 ± 0.01.
In the case of GCTGGTTTCG, the switch fluorescence ratio is reported as 1.033 ± 0.0054.
GCTGTAACG showed a switch fluorescence ratio of 1 ± 0.042.
For GCTGTAACTG, the switch fluorescence ratio was 1.08 ± 0.017.
Sequence GCTGTAATTT has a switch fluorescence ratio of 0.998 ± 0.056.
GCTGTACGCG showed a switch fluorescence ratio of 1.03 ± 0.029.
Work on GCTGTAGAAG yielded a switch fluorescence ratio of 0.9951 ± 0.0056.
Work on GCTGTAGGGG yielded a switch fluorescence ratio of 1.02 ± 0.081.
GCTGTATTTA was tested, and the switch fluorescence ratio was 0.974 ± 0.024.
GCTGTCAATC gave a switch fluorescence ratio of 1.11 ± 0.053.
Work on GCTGTCGCTT yielded a switch fluorescence ratio of 1.03 ± 0.027.
Sequence GCTGTGGGTA has a switch fluorescence ratio of 0.989 ± 0.01.
GCTGTTGTTG showed a switch fluorescence ratio of 0.9918 ± 0.0051.
In the case of GCTTAAGGCG, the switch fluorescence ratio is reported as 0.991 ± 0.051.
Work on GCTTAAGGCT yielded a switch fluorescence ratio of 1 ± 0.022.
GCTTACAGGC was tested, and the switch fluorescence ratio was 1.04 ± 0.048.
Sequence GCTTACGGGG has a switch fluorescence ratio of 1.04 ± 0.049.
Sequence GCTTACTCAT has a switch fluorescence ratio of 1.09 ± 0.043.
GCTTATTTAA gave a switch fluorescence ratio of 0.99 ± 0.021.
For GCTTCAAGTC, the switch fluorescence ratio was 0.978 ± 0.018.
For GCTTCAAGTT, the switch fluorescence ratio was 0.985 ± 0.027.
GCTTCCTTGG gave a switch fluorescence ratio of 1.31 ± 0.079.
In the case of GCTTCGGCCT, the switch fluorescence ratio is reported as 1.02 ± 0.058.
In the case of GCTTCGGCGC, the switch fluorescence ratio is reported as 1.03 ± 0.046.
Sequence GCTTCGTGTT has a switch fluorescence ratio of 1.05 ± 0.003.
For GCTTGAGGGA, the switch fluorescence ratio was 0.984 ± 0.042.
Sequence GCTTGAGGGG has a switch fluorescence ratio of 1.012 ± 0.0022.
In the case of GCTTGCGGGA, the switch fluorescence ratio is reported as 1.03 ± 0.019.
Work on GCTTGCGGTC yielded a switch fluorescence ratio of 0.9873 ± 0.0095.
Work on GCTTGGACTA yielded a switch fluorescence ratio of 0.967 ± 0.011.
GCTTGGGGTT was tested, and the switch fluorescence ratio was 0.98 ± 0.021.
For GCTTGTATTT, the switch fluorescence ratio was 1 ± 0.014.
GCTTGTGAGG showed a switch fluorescence ratio of 1.02 ± 0.022.
GCTTGTTAAA gave a switch fluorescence ratio of 0.994 ± 0.037.
For GCTTTACTGT, the switch fluorescence ratio was 1.01 ± 0.013.
GCTTTAGTTC showed a switch fluorescence ratio of 1.03 ± 0.003.
GCTTTATAGG gave a switch fluorescence ratio of 1 ± 0.016.
For GCTTTATAGT, the switch fluorescence ratio was 0.985 ± 0.049.
In the case of GCTTTATGCT, the switch fluorescence ratio is reported as 0.9714 ± 0.0025.
GCTTTATTTA was tested, and the switch fluorescence ratio was 0.992 ± 0.053.
GCTTTCTCGT was tested, and the switch fluorescence ratio was 1.03 ± 0.029.
In the case of GCTTTGAATG, the switch fluorescence ratio is reported as 1.011 ± 0.005.
Work on GCTTTGGATA yielded a switch fluorescence ratio of 1.04 ± 0.055.
With GCTTTGGCTA the switch fluorescence ratio was 1.02 ± 0.036.
With GCTTTGGGCA the switch fluorescence ratio was 0.9992 ± 0.0067.
With GCTTTGTGTA the switch fluorescence ratio was 1.01 ± 0.049.
In the case of GCTTTTACGG, the switch fluorescence ratio is reported as 1.07 ± 0.016.
In the case of GCTTTTGGGG, the switch fluorescence ratio is reported as 1.03 ± 0.087.
In the case of GCTTTTGGGT, the switch fluorescence ratio is reported as 1 ± 0.025.
With GCTTTTGTAC the switch fluorescence ratio was 1.05 ± 0.05.
GCTTTTTAGG was tested, and the switch fluorescence ratio was 0.964 ± 0.024.
GCTTTTTTTG was tested, and the switch fluorescence ratio was 1.017 ± 0.0079.
Work on GGAAAAAATA yielded a switch fluorescence ratio of 1.001 ± 0.0072.
GGAAAATCAA was tested, and the switch fluorescence ratio was 0.9812 ± 0.0078.
For GGAAAATTAA, the switch fluorescence ratio was 1 ± 0.033.
In the case of GGAAACGGGG, the switch fluorescence ratio is reported as 1.001 ± 0.0064.
Work on GGAAAGAACA yielded a switch fluorescence ratio of 0.9817 ± 0.0079.
For GGAAAGAGTT, the switch fluorescence ratio was 1.07 ± 0.056.
In the case of GGAAAGATAG, the switch fluorescence ratio is reported as 1.022 ± 0.0046.
Work on GGAAATAAGG yielded a switch fluorescence ratio of 1.01 ± 0.033.
GGAAATAGTG gave a switch fluorescence ratio of 0.966 ± 0.044.
GGAAATCACA was tested, and the switch fluorescence ratio was 1.01 ± 0.029.
In the case of GGAAATGACT, the switch fluorescence ratio is reported as 1.01 ± 0.021.
With GGAAATGGGG the switch fluorescence ratio was 0.987 ± 0.11.
Work on GGAAATTTTT yielded a switch fluorescence ratio of 0.973 ± 0.019.
GGAACACACG was tested, and the switch fluorescence ratio was 1.32 ± 0.039.
Sequence GGAACATAG has a switch fluorescence ratio of 0.9987 ± 0.0023.
With GGAACCATAT the switch fluorescence ratio was 0.997 ± 0.013.
GGAACCTCTG gave a switch fluorescence ratio of 1.012 ± 0.0037.
In the case of GGAACGTAGG, the switch fluorescence ratio is reported as 1.016 ± 0.0083.
Sequence GGAACGTTCT has a switch fluorescence ratio of 0.995 ± 0.046.
GGAACGTTGG was tested, and the switch fluorescence ratio was 0.973 ± 0.045.
For GGAAGATTTT, the switch fluorescence ratio was 0.989 ± 0.058.
GGAAGCGCTC showed a switch fluorescence ratio of 1 ± 0.02.
GGAAGGAGTC gave a switch fluorescence ratio of 0.991 ± 0.019.
GGAAGGGGCC showed a switch fluorescence ratio of 1.03 ± 0.086.
For GGAAGGGGGC, the switch fluorescence ratio was 0.9707 ± 0.0066.
With GGAAGGGGGT the switch fluorescence ratio was 1.01 ± 0.12.
Work on GGAAGGGGTA yielded a switch fluorescence ratio of 1.01 ± 0.048.
Sequence GGAAGGGTAT has a switch fluorescence ratio of 1 ± 0.03.
Sequence GGAAGTCCGG has a switch fluorescence ratio of 1.03 ± 0.022.
GGAATAGTTT was tested, and the switch fluorescence ratio was 1.03 ± 0.047.
GGAATCATAG gave a switch fluorescence ratio of 1.06 ± 0.07.
GGAATCGGTC was tested, and the switch fluorescence ratio was 1 ± 0.051.
In the case of GGAATCTGGG, the switch fluorescence ratio is reported as 0.983 ± 0.05.
In the case of GGAATCTGTA, the switch fluorescence ratio is reported as 0.949 ± 0.022.
For GGAATGCGCA, the switch fluorescence ratio was 1.028 ± 0.0068.
GGAATGGAAC was tested, and the switch fluorescence ratio was 1.01 ± 0.024.
GGAATGTTTT gave a switch fluorescence ratio of 0.994 ± 0.023.
Work on GGAATTACTT yielded a switch fluorescence ratio of 0.987 ± 0.031.
GGAATTCGGG showed a switch fluorescence ratio of 1.01 ± 0.025.
With GGAATTGTTT the switch fluorescence ratio was 0.974 ± 0.048.
GGACAAGCGT showed a switch fluorescence ratio of 0.987 ± 0.021.
